Laboratory results published in patent US20240024480A1 (MIE UNIVERSITY, published 2024).

Molecular target: HLA-A24 PRAMEp301-309 pMHC complex (human)
Test: SPR, Biacore X100, Biotin CAPture Kit; A24 PRAMEp301-309 immobilised as ligand, scFv-pp at 31.25-500 nM, global fit

B1: #98 scFvCL-pp (scFv)
chain: QVQLVQSGAEVKKPGSSVKVSCKASGGTFSSYAISWVRQAPGQGLEWMGGIIPIFGTANYAQKFQGRVTITADESTGTAYMELSSLRSEDTAVYYCARHHSNYYYYGMDVWGQGTTVTVSRSYELTQPLSVSVALGQTARITCGGNNIGSKNVHWYQQKPGQAPVLVIYRDSNRPSGIPERFSGSNSGNTATLTISRAQAGDEADYYCQVWDSSHVFGTGTKVTVL
B1 showed a Kd of 5.3 nM.
